Columns and labels:
[1] = molecular target: T1, binding of Npw38 to NpwBP(P2)-GFP (Homo sapiens, UniProt O60828); experiment: Detection of binding-inhibitory action on intranuclear localization of NpwBP(P2)-GFP; type: cell-based; details: COS7 cells, NpwBP of more than NpwBP(P2)-GFP co-expressed along with Npw38 and NpwBP(P2)-GFP
T1 construct: expressed in transfected cells; host or cells: COS7 (monkey kidney)
T1 sequence (O60828 1-265): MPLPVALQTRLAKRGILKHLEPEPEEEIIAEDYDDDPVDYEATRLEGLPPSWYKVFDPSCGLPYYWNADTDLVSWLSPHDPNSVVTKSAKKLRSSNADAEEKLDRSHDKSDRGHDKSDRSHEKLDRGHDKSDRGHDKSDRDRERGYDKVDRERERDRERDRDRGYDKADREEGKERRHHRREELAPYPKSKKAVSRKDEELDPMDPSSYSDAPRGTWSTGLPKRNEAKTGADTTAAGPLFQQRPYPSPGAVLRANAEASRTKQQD
Method: (§1) Monkey kidney-derived, cultured cell COS7 was incubated in a 10% fetal calf serum-containing Dulbecco's modified Eagle's medium (DMEM) in the presence of 5% CO2 at 37° C. COS7 cells of 1=10^5 were placed in a 6-well plate (from Nunk, having a well diameter of 3 cm), and further incubated therein in the presence of 5% CO2 at 37° C. for 22 hours. After the medium was removed, the cell sur were washed with a phosphate buffer solution (PBS), and then further washed with a 50 mM Tris-HCl (pH 7.5)-containing DMEM. To these cells, added was a suspension comprising 1 μl of a plasmid suspension, 0.6 ml of DMEM and 3 μl of TRANSFECTAM™ (from IBF), and incubated in the presence of 5% CO2 at 37° C. for 12 hours. Then, the cells were washed with PBS, and fixed with 4% peraformaldehyde-containing PBS at room temperature for 10 minutes. The thus-fixed cells were washed with PBS, then treated with 0.2% Triton X-100, and thereafter blocked with 5% milk PBS. This was reacted with an anti-HA antibody for 45 minutes, then washed with PBS, and reacted with a rhodamine-binding secondary antibody for 45 minutes.
In the system of the above (2), NpwBP of more than NpwBP(P2)-GFP was co-expressed in the cells along with Npw38 and NpwBP(P2)-GFP. In this case, the intranuclear localization of NpwBP(P2)-GFP was inhibited. […]

Npw38 = molecular target: T2, Npw38 (Homo sapiens, UniProt O60828, W52A); experiment: Npw38-NpwBP binding detection by intracellular localization of GFP fluorescence in COS7 cells; type: cell-based; details: expressed in place of HA-Npw38 together with NpwBP-GFP
T2 construct: expressed in transfected cells; host or cells: COS7 (monkey kidney)
T2 sequence (O60828 2-265 W52A): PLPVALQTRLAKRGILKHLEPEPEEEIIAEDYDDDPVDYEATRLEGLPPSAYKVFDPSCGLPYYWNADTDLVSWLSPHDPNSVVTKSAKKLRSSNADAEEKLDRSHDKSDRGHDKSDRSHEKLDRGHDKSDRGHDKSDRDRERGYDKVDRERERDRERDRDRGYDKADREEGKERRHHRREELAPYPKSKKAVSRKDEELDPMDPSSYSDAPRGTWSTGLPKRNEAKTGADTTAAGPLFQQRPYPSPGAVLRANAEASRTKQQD
Method: as §1, with “45 minutes. […]” for “45 minutes.”
First, pKA1-NpwBP(P1)-GFP or pKA1-NpwBP(P2)-GFP was singly introduced into COS7 cells, and the localization of these fusion proteins in the cells was checked through fluorescence microscopy based on the green fluorescence of GFP as the index thereof. […]

Molecule | intranuclear localization of NpwBP(P2)-GFP [1] | intranuclear localization of the green fluorescence of NpwBP-GFP (Npw38)
NpwBP: nuclear protein (SEQ ID NO: 2) that binds to Npw38 (protein, listed as Homo sapiens) MGRRSTSSTKSGKFMNPTDQARKEARKRELKKNKKQRMMVRAAVLKMKDPKQIIRDMEKLDEMEFNPVQQPQLNEKVLKDKRKKLRETFERILRLYEKENPDIYKELRKLEVEYEQKRAQLSQYFDAVKNAQHVEVESIPLPDMPHAPSNILIQDIPLPGAQPPSILKKTSAYGPPTRAVSILPLLGHGVPRLPPGRKPPGPPPGPPPPQVVQMYGRKVGFALDLPPRRRDEDMLYSPELAQRGHDDDVSSTSEDDGYPEDMDQDKHDDSTDDSDTDKSDGESDGDEFVHRDNGERDNNEEKKSGLSVRFADMPGKSRKKKKNMKELTPLQAMMLRMAGQEIPEEGREVEEFSEDDDEDDSDDSEAEKQSQKQHKEESHSDGTSTASSQQQAPPQSVPPSQIQAPPMPGPPPLGPPPAPPLRPPGPPTGLPPGPPPGAPPFLRPPGMPGLRGPLPRLLPPGPPPGRPPGPPPGPPPGLPPGPPPRGPPPRLPPPAPPGIPPPRPGMMRPPLVPPLGPAPPGLFPPAPLPNPGVLSAPPNLIQRPKADDTSAATIEKKATATISAKPQITNPKAEITRFVPTALRVRRENKGATAAPQRKSEDDSAVPLAKAAPKSGPSVPVSVQTKDDVYEAFMKEMEGLL | inhibited | 
Npw38(W52A): a WW domain variant of Npw38 (protein) MPLPVALQTRLAKRGILKHLEPEPEEEIIAEDYDDDPVDYEATRLEGLPPSAYKVFDPSCGLPYYWNADTDLVSWLSPHDPNSVVTKSAKKLRSSNADAEEKLDRSHDKSDRGHDKSDRSHEKLDRGHDKSDRGHDKSDRDRERGYDKVDRERERDRERDRDRGYDKADREEGKERRHHRREELAPYPKSKKAVSRKDEELDPMDPSSYSDAPRGTWSTGLPKRNEAKTGADTTAAGPLFQQRPYPSPGAVLRANAEASRTKQQD |  | no intranuclear localization

— US20030040012A1, “Method of detecting protein-protein interaction” (priority 2000, published 2003)
